Experimental findings from publication PMC3668541, “Production of recombinant 1-deoxy-D-xylulose-5-phosphate synthase from Plasmodium vivax in Escherichia coli^” (FEBS Open Bio, 2013) are described below.

Data set [1] addresses Plasmodium vivax 1-deoxy-D-xylulose-5-phosphate synthase catalytic core (DXScc) (Plasmodium vivax). In words: SEC; gel filtration chromatography under non-denaturing conditions of DXScc after Ni-NTA affinity chromatography; buffer and column not shown (Supplementary material). Background: Size exclusion chromatography separates by hydrodynamic size, large species first.
Data set [2] concerns the target T1, P. vivax DXScc (DXS SH-2, DXS catalytic core) (Plasmodium vivax, UniProt A5K817).
T1 construct: gene PVX_082790; catalytic core, N-terminal first 210 residues (signal and transit peptide) deleted; codon-optimized gene in E. coli; theoretical monomer 103,921 Da; homodimer
T1 sequence (A5K817 211-1111): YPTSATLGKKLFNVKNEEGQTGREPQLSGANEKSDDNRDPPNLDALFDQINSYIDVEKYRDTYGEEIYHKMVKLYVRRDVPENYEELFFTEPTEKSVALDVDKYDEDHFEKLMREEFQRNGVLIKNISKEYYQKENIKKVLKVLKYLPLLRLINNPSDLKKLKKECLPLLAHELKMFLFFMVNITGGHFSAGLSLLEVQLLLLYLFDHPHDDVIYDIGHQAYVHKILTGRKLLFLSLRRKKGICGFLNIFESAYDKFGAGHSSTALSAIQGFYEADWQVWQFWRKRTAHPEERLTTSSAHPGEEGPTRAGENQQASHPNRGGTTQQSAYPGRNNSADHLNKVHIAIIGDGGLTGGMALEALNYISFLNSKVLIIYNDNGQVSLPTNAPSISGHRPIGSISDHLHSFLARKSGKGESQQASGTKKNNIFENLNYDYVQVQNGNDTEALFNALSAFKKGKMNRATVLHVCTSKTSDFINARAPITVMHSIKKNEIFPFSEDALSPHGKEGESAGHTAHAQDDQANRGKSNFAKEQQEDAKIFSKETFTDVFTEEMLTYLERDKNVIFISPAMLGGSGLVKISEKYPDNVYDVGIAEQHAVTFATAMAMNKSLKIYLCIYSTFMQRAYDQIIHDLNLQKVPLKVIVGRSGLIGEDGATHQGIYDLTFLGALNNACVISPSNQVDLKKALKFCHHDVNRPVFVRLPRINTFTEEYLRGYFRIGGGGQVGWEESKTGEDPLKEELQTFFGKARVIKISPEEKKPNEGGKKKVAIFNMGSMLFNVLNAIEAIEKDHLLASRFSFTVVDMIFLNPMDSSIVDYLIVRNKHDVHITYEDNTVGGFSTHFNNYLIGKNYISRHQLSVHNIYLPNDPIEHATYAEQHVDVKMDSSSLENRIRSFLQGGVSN
In words: DXS–DXR coupled assay. It is filed as biochemical.

Substrate in data set [3]: CC(=O)C(=O)O
In words: DXS–DXR coupled assay. Type of data set: biochemical, Plasmodium vivax. To be noted: apparent; 0.1 mM GAP. From the text: (§1) DXS–DXR coupled assay on P. vivax DXScc (DXS SH-2, DXS catalytic core)

Substrate in data set [4]: O=C[C@H](O)COP(=O)(O)O
The data set is described as follows: DXS–DXR coupled assay. Type of data set: biochemical, Plasmodium vivax. The note with it: apparent; 4.0 mM pyruvate.
Description: as §1

In data set [1], “Plasmodium vivax 1-deoxy-D-xylulose-5-phosphate synthase catalytic core (DXScc) (enzyme)” came in with a stoichiometry N of 2.
With `O=C(O)C(=O)CF` [β-fluoropyruvate], the Ki in data set [2] came to 200 ± 100 µM.

B1: P. vivax DXScc (DXS SH-2, DXS catalytic core) (Plasmodium vivax Sal-1) (protein)
chain: T1 sequence (A5K817 211-1111)
notes: catalytic core, N-terminal first 210 residues (signal and transit peptide) deleted; codon-optimized gene in E. coli; theoretical monomer 103,921 Da; homodimer
On to B1, for which, in data set [3], the Km came out at 870 ± 110 µM, the kcat worked out at 9.5 ± 0.5 s⁻¹ and the kcat/Km stood at 11000 M⁻¹ s⁻¹. Further, in data set [4], the Km turned out to be 19 ± 4 µM, the catalytic constant (kcat) amounted to 11 ± 0.9 s⁻¹ and the kcat/Km stood at 570000 M⁻¹ s⁻¹.

By stoichiometry N is commonly meant the number of molecules, sites or subunits per partner or assembly. A word on the Ki: it is a measure of affinity in units of concentration, obtained from inhibition or displacement. Read a low Ki as higher affinity. The term Km denotes the concentration of substrate that gives half-maximal velocity. A word on the kcat: it is the maximal rate divided by the concentration of active sites. One may read the kcat/Km as the turnover number divided by the Michaelis constant.
